Sequences and labels used below:
B4: Dcp1 from S. pombe, residues 1-127 (natural protein, UniProt Q9P805 1-127, looked up)
chain: MEDENILRNAVNLQVLKFHYPEIESIIDIASHVAVYQFDVGSQKWLKTSIEGTFFLVKDQRARVGYVILNRNSPENLYLFINHPSNVHLVDRYLIHRTENQHVVGLWMFDPNDMSRIFNIVKESLLR
notes: Dcp1, S. pombe, UniProt Q9P805, residues 1-127; also called internal ID 48; source: E. coli BL21(DE3) CodonPlus-RIL, purified (Ni-NTA, TEV cleavage, second Ni-NTA, SEC)

Holding throughout (assay): NMR spectra of a prepared complex; Dcp1 and Dcp2 expressed separately, complex prepared with one partner NMR active; 303 K; 125 mM NaCl, 25 mM HEPES, pH 7.3, 1 mM DTT; 100-500 uM protein
Holding throughout (conditions): both partners purified

For assay [1], the target named is T1, Dcp1 from S. pombe, residues 1-127, 15N and 5-fluorotryptophan labeled (S. pombe, UniProt Q9P805 1-127, 5-fluorotryptophan at Trp 45 and 107).
T1 construct: Dcp1, S. pombe, UniProt Q9P805, residues 1-127; the tryptophans are replaced with 5-fluorotryptophan; also called 5-fluorotryptophan labeled Dcp1; source: E. coli BL21(DE3) CodonPlus-RIL with 5-fluoroindole added, purified (Ni-NTA, TEV cleavage, second Ni-NTA, SEC)
T1 sequence (looked up): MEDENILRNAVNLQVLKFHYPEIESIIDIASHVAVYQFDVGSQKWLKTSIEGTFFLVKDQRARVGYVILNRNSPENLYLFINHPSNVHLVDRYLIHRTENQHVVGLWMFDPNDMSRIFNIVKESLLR

The target in assay [2] is B4.
The target in assay [3] is T2, Dcp2 from S. pombe, regulatory and catalytic domains, residues 1-243, 5-fluorotryptophan labeled (S. pombe, UniProt O13828 1-243, the seven tryptophan residues are replaced with 5-fluorotryptophan).
T2 construct: Dcp2, S. pombe, residues 1-243 (NRD 1-95 and catalytic NUDIX domain 96-243); also used with isoleucine and methionine methyl 13C labeling; also called 5-fluorotryptophan labeled Dcp2-NRD-CTD; source: E. coli BL21(DE3) CodonPlus-RIL with 5-fluoroindole added, purified (Ni-NTA, TEV cleavage, second Ni-NTA, SEC)
T2 sequence (looked up): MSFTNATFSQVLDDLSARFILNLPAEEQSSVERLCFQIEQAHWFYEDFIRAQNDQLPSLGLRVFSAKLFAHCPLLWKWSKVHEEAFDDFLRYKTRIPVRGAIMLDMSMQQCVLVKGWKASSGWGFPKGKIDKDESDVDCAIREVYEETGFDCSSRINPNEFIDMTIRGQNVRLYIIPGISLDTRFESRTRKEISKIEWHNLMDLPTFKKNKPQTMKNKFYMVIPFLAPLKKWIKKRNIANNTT

Assay [4] deals with T3, Dcp2 from S. pombe, regulatory and catalytic domains, residues 1-243 (S. pombe, UniProt O13828 1-243).
T3 construct: Dcp2, S. pombe, residues 1-243 (NRD 1-95 and catalytic NUDIX domain 96-243); also called Dcp2-NRD-CTD; internal ID 223; source: E. coli BL21(DE3) CodonPlus-RIL, purified (Ni-NTA, TEV cleavage, second Ni-NTA, SEC)
T3 sequence (looked up): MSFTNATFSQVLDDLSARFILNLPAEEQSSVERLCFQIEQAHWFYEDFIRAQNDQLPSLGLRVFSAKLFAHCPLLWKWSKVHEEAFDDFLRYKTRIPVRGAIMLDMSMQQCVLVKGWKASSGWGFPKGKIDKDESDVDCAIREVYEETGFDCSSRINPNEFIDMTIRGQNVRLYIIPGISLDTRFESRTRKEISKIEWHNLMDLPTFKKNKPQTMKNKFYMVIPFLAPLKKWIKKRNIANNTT

B1: Dcp2 from S. pombe, N-terminal regulatory domain, residues 1-95 (domain or fragment, UniProt O13828 1-95, looked up)
chain: MSFTNATFSQVLDDLSARFILNLPAEEQSSVERLCFQIEQAHWFYEDFIRAQNDQLPSLGLRVFSAKLFAHCPLLWKWSKVHEEAFDDFLRYKTR
notes: Dcp2, S. pombe, residues 1-95 (N-terminal regulatory domain); Used unlabeled or 15N labeled, depending on the sample; also called Dcp2 NRD; NRD of Dcp2; source: E. coli BL21(DE3) CodonPlus-RIL, purified (Ni-NTA, TEV cleavage, second Ni-NTA, SEC)
In the case of B1, the binding result in assay [1] and in assay [2] was “binds” each time.

B2: Dcp2 from S. pombe, N-terminal regulatory domain, residues 1-95, 5-fluorotryptophan labeled (domain or fragment, UniProt O13828 1-95, looked up)
chain: MSFTNATFSQVLDDLSARFILNLPAEEQSSVERLCFQIEQAHWFYEDFIRAQNDQLPSLGLRVFSAKLFAHCPLLWKWSKVHEEAFDDFLRYKTR
modifications: 5-fluorotryptophan at the three tryptophan residues (W43 among them)
notes: Dcp2, S. pombe, residues 1-95 (N-terminal regulatory domain); also called 5-fluorotryptophan labeled Dcp2 NRD; source: E. coli BL21(DE3) CodonPlus-RIL with 5-fluoroindole added, purified (Ni-NTA, TEV cleavage, second Ni-NTA, SEC)
With B2, in assay [2], the binding result is “binds”.

B3: Dcp2 from S. pombe, residues 1-95, W43A assignment mutant (domain or fragment, UniProt O13828 1-95, looked up)
chain: MSFTNATFSQVLDDLSARFILNLPAEEQSSVERLCFQIEQAHAFYEDFIRAQNDQLPSLGLRVFSAKLFAHCPLLWKWSKVHEEAFDDFLRYKTR
notes: Dcp2, S. pombe, residues 1-95 with W43A; also called Dcp2 NRD W43A; internal ID 1070; source: E. coli BL21(DE3) CodonPlus-RIL, purified (Ni-NTA, TEV cleavage, second Ni-NTA, SEC)
Take B3: in assay [2], the binding result is “binds”. Turning to B4, the binding result in assay [3] and in assay [4] was “binds” in each case.

These data come from paper PMC10149471, “Assessing the applicability of ^19F labeled tryptophan residues to quantify protein dynamics” (Journal of Biomolecular Nmr, 2023).
